For test [1], the target named is cynomolgus formyl peptide receptor 1 (cynomolgus monkey).
For test [2] the target is unchanged. Nature of the test: FMAT competition binding on cells.

Substitutions are numbered along the chain they refer to.

B1: Fpro0165 IgG (antibody, V domains shown)
VH: EVQLVESGGGLVKPGGSLRLSCAASGFTFSNAWMNWVRQAPGKGLEWVGRVKSKTDGGAADYAAPVKGRFTISRDDSKNTLYLQMNSLKTEDTAVYYCTTDQLGYDFWNGYYTDTLYYYFGMDVWGPGTTVTVSS
VL: DIVMTQSPLSLPVTPGEPASISCRSSQPLLAMDGHNYLDWYLQKPGQSPQVLIYQSKWRASGVPDRFSGSGSGTDFTLKISRVEAEDVGVYYCMQALQTPLTFGGGTKVEIK
Usually IC50 stands for the concentration at which inhibition is half-maximal. Higher therefore signals weaker potency. On to B1, for which the IC50, inhibition of fMLFF-induced calcium release, cynomolgus FPR1 HEK cells in test [1] came out at 12 nM. This molecule had a half-maximal inhibitory concentration (IC50) in test [2] of 20 nM.

B2: Fpro0084 IgG (antibody, V domains shown)
VH: B1 VH with V51I, N109S
VL: B1 VL with P28Q, L30Q, M32Y, Q55L, S56G, K57S, W58N
In test [2], B2 registered a half-inhibitory concentration (IC50) of 13 nM. This lies in the double-digit nanomolar range.

B3: Fpro0025 IgG (antibody, V domains shown)
VH: B1 VH with V51I, N109S
VL: B1 VL with Q55L, S56G, K57S, W58N
B3: the half-maximal inhibitory concentration (IC50) in test [2] amounted to 33 nM.

B4: Fpro0067 IgG (antibody, V domains shown)
VH: B1 VH with V51I, N109S
VL: B1 VL
B4: in test [2], the half-maximal inhibitory concentration (IC50) came out at 13 nM.

(Values after paper PMC4622665.)
